# Measurements published in US20260055369A1 (H LEE MOFFITT CANCER CENTER AND RESEARCH INSTITUTE, published 2026).
# Molecular target: Notch1 on CHO-K1 N1-Gal4 fluorescent reporter cells (UniProt P46531 19-2555, limits assumed)
# Assay: cell-based or functional assay
# Sequence of Notch1 on CHO-K1 N1-Gal4 fluorescent reporter cells (P46531 19-2555 limits assumed): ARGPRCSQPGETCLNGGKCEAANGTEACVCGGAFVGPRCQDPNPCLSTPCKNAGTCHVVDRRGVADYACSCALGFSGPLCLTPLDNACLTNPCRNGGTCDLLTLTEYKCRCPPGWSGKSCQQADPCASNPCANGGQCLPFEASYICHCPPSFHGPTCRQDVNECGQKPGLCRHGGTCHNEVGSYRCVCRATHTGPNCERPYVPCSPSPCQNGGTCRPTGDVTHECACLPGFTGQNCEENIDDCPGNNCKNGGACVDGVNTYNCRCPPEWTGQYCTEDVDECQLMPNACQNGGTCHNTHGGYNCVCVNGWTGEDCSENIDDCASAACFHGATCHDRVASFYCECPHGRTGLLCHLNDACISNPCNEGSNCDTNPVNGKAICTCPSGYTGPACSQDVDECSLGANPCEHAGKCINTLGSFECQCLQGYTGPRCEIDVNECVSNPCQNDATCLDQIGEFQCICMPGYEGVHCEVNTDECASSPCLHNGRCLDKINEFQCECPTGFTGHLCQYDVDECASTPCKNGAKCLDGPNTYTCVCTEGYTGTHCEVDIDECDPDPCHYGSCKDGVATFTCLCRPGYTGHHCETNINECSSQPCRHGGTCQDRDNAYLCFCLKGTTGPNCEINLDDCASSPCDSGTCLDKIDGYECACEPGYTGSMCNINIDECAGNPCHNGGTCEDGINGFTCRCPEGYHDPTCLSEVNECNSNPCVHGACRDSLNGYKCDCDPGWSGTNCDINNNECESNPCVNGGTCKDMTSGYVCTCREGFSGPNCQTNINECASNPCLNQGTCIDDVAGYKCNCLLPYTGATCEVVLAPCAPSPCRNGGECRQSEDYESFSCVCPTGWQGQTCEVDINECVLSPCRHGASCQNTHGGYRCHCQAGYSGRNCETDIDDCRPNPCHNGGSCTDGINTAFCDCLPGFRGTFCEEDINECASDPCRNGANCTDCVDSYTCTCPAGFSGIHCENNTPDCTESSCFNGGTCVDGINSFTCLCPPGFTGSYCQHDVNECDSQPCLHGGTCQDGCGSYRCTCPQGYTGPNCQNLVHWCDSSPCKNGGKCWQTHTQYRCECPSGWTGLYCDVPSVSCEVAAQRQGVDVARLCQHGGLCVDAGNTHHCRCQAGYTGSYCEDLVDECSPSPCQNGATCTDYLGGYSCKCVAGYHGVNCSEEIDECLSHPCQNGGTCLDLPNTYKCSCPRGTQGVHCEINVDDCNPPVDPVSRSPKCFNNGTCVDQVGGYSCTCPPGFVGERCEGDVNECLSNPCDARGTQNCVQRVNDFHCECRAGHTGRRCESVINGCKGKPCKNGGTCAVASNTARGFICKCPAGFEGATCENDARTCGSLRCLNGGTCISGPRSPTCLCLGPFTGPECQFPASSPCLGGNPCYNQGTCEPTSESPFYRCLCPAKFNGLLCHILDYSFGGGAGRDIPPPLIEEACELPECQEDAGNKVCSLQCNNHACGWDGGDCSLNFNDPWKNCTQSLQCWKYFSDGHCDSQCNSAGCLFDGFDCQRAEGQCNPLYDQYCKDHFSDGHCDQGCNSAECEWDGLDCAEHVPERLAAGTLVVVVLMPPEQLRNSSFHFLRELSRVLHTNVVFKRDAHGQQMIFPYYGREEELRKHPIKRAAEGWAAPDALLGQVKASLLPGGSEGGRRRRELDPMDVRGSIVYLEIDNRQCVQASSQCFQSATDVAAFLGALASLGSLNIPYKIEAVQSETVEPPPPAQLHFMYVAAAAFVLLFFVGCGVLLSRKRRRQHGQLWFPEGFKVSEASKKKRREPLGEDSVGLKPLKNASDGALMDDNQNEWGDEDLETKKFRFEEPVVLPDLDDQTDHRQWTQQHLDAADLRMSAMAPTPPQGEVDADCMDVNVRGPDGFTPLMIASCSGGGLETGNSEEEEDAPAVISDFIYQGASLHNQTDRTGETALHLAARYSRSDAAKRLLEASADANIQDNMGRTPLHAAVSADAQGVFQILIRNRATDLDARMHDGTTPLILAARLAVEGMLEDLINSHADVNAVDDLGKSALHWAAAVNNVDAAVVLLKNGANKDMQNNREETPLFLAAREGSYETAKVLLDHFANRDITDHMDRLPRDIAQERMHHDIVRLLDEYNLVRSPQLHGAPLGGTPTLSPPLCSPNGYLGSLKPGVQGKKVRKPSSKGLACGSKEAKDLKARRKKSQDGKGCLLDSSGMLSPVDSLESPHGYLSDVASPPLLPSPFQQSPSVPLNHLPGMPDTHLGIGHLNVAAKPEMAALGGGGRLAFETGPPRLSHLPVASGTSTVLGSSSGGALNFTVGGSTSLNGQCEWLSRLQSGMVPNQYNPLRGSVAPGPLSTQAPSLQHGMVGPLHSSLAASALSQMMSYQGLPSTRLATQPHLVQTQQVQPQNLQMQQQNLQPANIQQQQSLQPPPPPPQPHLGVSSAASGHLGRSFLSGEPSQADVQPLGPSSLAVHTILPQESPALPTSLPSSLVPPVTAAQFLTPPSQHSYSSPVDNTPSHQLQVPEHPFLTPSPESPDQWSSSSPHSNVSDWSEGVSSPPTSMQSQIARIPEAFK
binder,measurement,value
"Delta^MAX (N-EGF5), non-biotinylated (ligand, also called DLL4^MAX; soluble Delta^MAX) SSVFQLQLQEFINERGVLASGRPCEPGCRTFFRVCLKHFQAVVSPGPCTFGTVSTPVLGTNSFAVRDDSSGGGRNPLQLPLNFTWPGTFSLIIEAWHAPGDDLRPEALPPDALISKFAIQGSLAVGQNWLLDEQTSTLTRLRYSYRVICSDNYYGDNCSRLCKKRNDYFGHYVCQPDGNPSCLPGWTGEYCQQPICLSGCHEQNGYCSKPAECLCRPGWQGRLCNECIPHPGCRHGTCSTPWQCLCDEGWGGLYCDQDLNYCTHHSPCKNGATCRNSGPRSYTCTCRPGYTGVDCELELSECDSNPCRNGGSCKDQEDGYHCLCPPGYYGLHCEHSTLSCADSPCFNGGSCRERNQGANYACECPPNFTGSNCEHHHHHHHH","EC50 of Notch1 activation, fluorescent reporter cells, ligand non-specifically adsorbed to plates",0.009 ng/mm^2
same,IC50 of inhibition of Notch1 activation on WT DLL4-coated plates (comparison with DAPT and BB-94),1 nM
same,IC50 of inhibition of Notch1 reporter signalling in co-culture with HEK293T cells expressing WT DLL4,400 nM
same,IC50 of inhibition of Notch1 reporter signalling on WT DLL4-coated plates,0.6 nM
same,improvement in Notch activation efficiency against WT DLL4 (adsorbed ligand),250 fold
